T1: E6APpep fused to the GAL4 DNA binding domain (human)
T1 construct: The functional row used hrGFP-E6APpep; also called E6APpep-GAL4-BD
T1 chain: IPESSELTLQELLGEERR

T2: pep11** fused to the GAL4 DNA binding domain
T2 construct: also called pep11**-GAL4-BD
T2 chain: KEKEEYNSNCSCIACIGLI

T3: wildtype HPV16 E6 fused to the VP16 transcriptional activation domain, P03126
T3 chain: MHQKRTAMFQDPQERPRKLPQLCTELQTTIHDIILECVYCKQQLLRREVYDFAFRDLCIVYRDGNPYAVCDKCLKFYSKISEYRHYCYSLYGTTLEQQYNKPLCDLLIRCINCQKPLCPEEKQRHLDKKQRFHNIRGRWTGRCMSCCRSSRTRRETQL

B1: wildtype HPV16 E6 fused to the VP16 transcriptional activation domain (natural protein)
chain: MHQKRTAMFQDPQERPRKLPQLCTELQTTIHDIILECVYCKQQLLRREVYDFAFRDLCIVYRDGNPYAVCDKCLKFYSKISEYRHYCYSLYGTTLEQQYNKPLCDLLIRCINCQKPLCPEEKQRHLDKKQRFHNIRGRWTGRCMSCCRSSRTRRETQL
notes: source: HeLa, transfected (vector pACT), mammalian two-hybrid fusion

What was measured:
[1] = target: pep11** fused to the GAL4 DNA binding domain; test: mammalian two-hybrid; conditions: HeLa cells; read off a plot
[2] = target: E6APpep fused to the GAL4 DNA binding domain; test: mammalian two-hybrid; conditions: HeLa cells; read off a plot
[3] = target: pep11** fused to the GAL4 DNA binding domain; test: mammalian two-hybrid; conditions: HeLa cells; read off a plot; remark: listed apart in the source
[4] = target: E6APpep fused to the GAL4 DNA binding domain; test: mammalian two-hybrid; conditions: HeLa cells; read off a plot; remark: listed apart in the source
[5] = target: T1, E6APpep fused to the GAL4 DNA binding …; test: two-hybrid; mammalian two-hybrid (CheckMate) in HeLa cells; peptides fused to GAL4-BD (pBIND), E6 proteins fused to VP16-AD (pACT); luciferase reporter pG5luc, normalized for pCMV-Gal; conditions: partners not purified
[6] = target: T2, pep11** fused to the GAL4 DNA binding …; test: two-hybrid; conditions: partners not purified
[7] = target: T3, wildtype HPV16 E6 fused to the VP16 …; test: mammalian two-hybrid; conditions: chain shown with the change; HeLa cells; parent: est. 19; read off a plot

Molecule | percent of parent [1] | percent of parent [2] | other results
wildtype HPV16 E6 fused to the VP16 transcriptional activation domain (from UniProt P03126) C51F | 110% | 110% | –
wildtype HPV16 E6 fused to the VP16 transcriptional activation domain (from UniProt P03126) Q35R | 100% | 120% | –
wildtype HPV16 E6 fused to the VP16 transcriptional activation domain (from UniProt P03126) R40A | 120% | 110% | –
wildtype HPV16 E6 fused to the VP16 transcriptional activation domain (from UniProt P03126) L100A | 130% | 130% | –
wildtype HPV16 E6 fused to the VP16 transcriptional activation domain (from UniProt P03126) Q107A | 100% | 79% | –
wildtype HPV16 E6 fused to the VP16 transcriptional activation domain (from UniProt P03126) N105A | 110% | 80% | –
wildtype HPV16 E6 fused to the VP16 transcriptional activation domain (from UniProt P03126) H24Q | 74% | 87% | –
wildtype HPV16 E6 fused to the VP16 transcriptional activation domain (from UniProt P03126) Y70A | 57% | 99% | percent of parent [3]: 57%; percent of parent [4]: 99%
wildtype HPV16 E6 fused to the VP16 transcriptional activation domain (from UniProt P03126) L38E | 140% | 170% | –
wildtype HPV16 E6 fused to the VP16 transcriptional activation domain (from UniProt P03126) T133A | 130% | 150% | –
wildtype HPV16 E6 fused to the VP16 transcriptional activation domain (from UniProt P03126) L119E | 100% | 88% | –
wildtype HPV16 E6 fused to the VP16 transcriptional activation domain (from UniProt P03126) D120K | 91% | 100% | –
wildtype HPV16 E6 fused to the VP16 transcriptional activation domain (from UniProt P03126) L50E | 5% | 42% | –
wildtype HPV16 E6 fused to the VP16 transcriptional activation domain (from UniProt P03126) L67A | 46% | 48% | –
wildtype HPV16 E6 fused to the VP16 transcriptional activation domain (from UniProt P03126) Y32A | 7% | 53% | –
wildtype HPV16 E6 fused to the VP16 transcriptional activation domain (from UniProt P03126) R129A | 190% | 290% | –
wildtype HPV16 E6 fused to the VP16 transcriptional activation domain (from UniProt P03126) I128A | 17% | 52% | –
wildtype HPV16 E6 fused to the VP16 transcriptional activation domain (from UniProt P03126) V62A | 61% | 63% | –
wildtype HPV16 E6 fused to the VP16 transcriptional activation domain (from UniProt P03126) D120A | 100% | 120% | –
wildtype HPV16 E6 fused to the VP16 transcriptional activation domain (from UniProt P03126) S74R | 64% | 70% | –
wildtype HPV16 E6 fused to the VP16 transcriptional activation domain (from UniProt P03126) K122A | 170% | 110% | –
wildtype HPV16 E6 fused to the VP16 transcriptional activation domain (from UniProt P03126) C140E | 150% | 140% | –

Molecule | percent of parent [1] | percent of parent [2] | other results
wildtype HPV16 E6 fused to the VP16 transcriptional activation domain (from UniProt P03126) D64H | 57% | 64% | –
wildtype HPV16 E6 fused to the VP16 transcriptional activation domain (from UniProt P03126) D64A | 60% | 64% | –
wildtype HPV16 E6 fused to the VP16 transcriptional activation domain (from UniProt P03126) K34E | 120% | 74% | –
wildtype HPV16 E6 fused to the VP16 transcriptional activation domain (from UniProt P03126) H126E | 98% | 63% | –
wildtype HPV16 E6 fused to the VP16 transcriptional activation domain (from UniProt P03126) D44R | 45% | 67% | –
wildtype HPV16 E6 fused to the VP16 transcriptional activation domain (from UniProt P03126) I128E | 10% | 48% | –
wildtype HPV16 E6 fused to the VP16 transcriptional activation domain (from UniProt P03126) R102E | 10% | 43% | –
wildtype HPV16 E6 fused to the VP16 transcriptional activation domain (from UniProt P03126) V53E | 7% | 45% | –
wildtype HPV16 E6 fused to the VP16 transcriptional activation domain (from UniProt P03126) K121A | 170% | 120% | –
wildtype HPV16 E6 fused to the VP16 transcriptional activation domain (from UniProt P03126) R129E | 120% | 110% | –
wildtype HPV16 E6 fused to the VP16 transcriptional activation domain (from UniProt P03126) H126A | 110% | 80% | –
wildtype HPV16 E6 fused to the VP16 transcriptional activation domain (from UniProt P03126) H24R | 57% | 79% | –
wildtype HPV16 E6 fused to the VP16 transcriptional activation domain (from UniProt P03126) R48A | 110% | 98% | –
wildtype HPV16 E6 fused to the VP16 transcriptional activation domain (from UniProt P03126) R39A | 89% | 78% | –
wildtype HPV16 E6 fused to the VP16 transcriptional activation domain (from UniProt P03126) Q35A | 100% | 110% | –
wildtype HPV16 E6 fused to the VP16 transcriptional activation domain (from UniProt P03126) R131E | 49% | 41% | –
wildtype HPV16 E6 fused to the VP16 transcriptional activation domain (from UniProt P03126) I23Q | 70% | 66% | –
wildtype HPV16 E6 fused to the VP16 transcriptional activation domain (from UniProt P03126) R55A | 130% | 64% | percent of parent [3]: 130%; percent of parent [4]: 64%
wildtype HPV16 E6 fused to the VP16 transcriptional activation domain (from UniProt P03126) K108A | 140% | 93% | –
B1 | – | – | fold increase of luciferase activity over control-transfected cells [5]: ~3 fold; fold increase of luciferase activity over control-transfected cells [6]: ~19 fold
KEKEEYNSNSSSIASIGLI [pep11** fused to the GAL4 DNA binding domain pep11**m] | – | – | response [7]: 1 RLA

Reference: paper PMC4226571, “The E6AP Binding Pocket of the HPV16 E6 Oncoprotein Provides a Docking Site for a Small Inhibitory Peptide Unrelated to E6AP, Indicating Druggability of E6” (PLoS ONE, 2014)
